Test: yeast display, Sf9 membrane polyspecificity reagent, FACS + sequencing; frameworks hold sequencing errors
Method in brief: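 Nanobodies came from a synthetic yeast display library in Saccharomyces cerevisiae BJ5465, induced with galactose for 36–48 hours and stained for 1 hour at 4 °C with 10% biotinylated, detergent-solubilized Sf9 membrane reagent. Cells were enriched on streptavidin microbeads and then FACS-sorted, with low and high (top ~1%) gates set on anti-HA fluorescence for expression and streptavidin fluorescence for reagent binding. Each polyreactivity label reflects the gate a clone came from. Genes were amplified by colony PCR, sequenced by MiSeq 2 × 250 and filtered by CDR length.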

Sequence: QVQLVESGGGLLQAGGSLRLSCAASGRTSDYYAMGWYRQAPGKERELVAAISRSGGRTYYADSVKGRFTISRDNAKNSVYFQMNSLQPEDTAVYYCNAGGTPYVLDEYWGQGTQVTVSS
- polyreactivity (PSR sort gate): high polyreactivity

Sequence: QVQLVESGGGLLQAGGSLRLSCAASGRTSGRYAMGWYRQAPGKERELVAAISSGGRTSYADSVKGRFTISRDNAQNTVDLQMISLKPEDTAVYYCAAVFVLARAYNYWGQGTLVTVSS
- polyreactivity (PSR sort gate): high polyreactivity

Sequence: QVQLVESGGGLLQAGGSLRLSCAASGSIFPDYAKGSYRQAPGKERELVAAITGIDGSTYADSVKGRFTISRVHAKNSVYLQINRLKPEDTAVYYCNTESIRYVPWFRFDYWGQGTQVTVSS
- polyreactivity (PSR sort gate): low polyreactivity

Sequence: QVQLVESGGGLLQAGGSLRLSCAASGSIFRRYAMGWYRQATGKERELVAAISRSGSSTYADSVKGRFTISRDNAKNTVYLQMNSLKPEDTAVYYCAASYAFLYYGYDSWGHGTQVTVSS
- polyreactivity (PSR sort gate): low polyreactivity

Sequence: QVQLVESGGGLLQAGGSLRLSCAASGSIFSGYAMGWYRQAPGKERELVAAISGSGGSTFYADSVKGRFTISRDNAKNTVYLQMNSLKPEDTAVYYCAARRIAPYGRYDYWGQGTQVTVSS
- polyreactivity (PSR sort gate): low polyreactivity

Sequence: QVQLVESGGGLLQAGGSLRLSCAASGSTFDIYAMGWYRQAPGKERELVAVISGGDGSTYYADSVKGRFTISRENAKNTVYLQMNSLKPEDTAVYYCAADDISPGYWDGEYDCWGQGTQVTVSS
- polyreactivity (PSR sort gate): low polyreactivity

Sequence: QVQLVESGGGLLQAGGSLRLSCAASGSTFDYYVMGWYRQAPGKERELVAAISHNAGSTYYADSVKGRFTISRDNAKNTVYLQMNSLKPEDTAVYYCAAPDYRNGVRYPLDYWGQGTQVTVSS
- polyreactivity (PSR sort gate): low polyreactivity

Sequence: QVQLVESGGGLLQAGGSLRLSCAASGSTFSSYAMGWYRPAPGKERELVAAITSSGGSTYYADSVKGRFTISRDNAKNTVYLKLNSLKPEDTAVYYCAAADVIFWLYYYWGQGTQVTVSS
- polyreactivity (PSR sort gate): low polyreactivity

Sequence: QVQLVESGGGLLQAGGSLRLSCAASGSTFYPYAMRWYRQAPGKERELVAAISSGGSTSYADSVKGRFTISRDNAKNTVYLQMNCLKPEDTAVYYCNGSSPGAVPVYDYDYWGQGTQVTVSS
- polyreactivity (PSR sort gate): low polyreactivity

Sequence: QVQLVESGGGLLQAGGSLRLSCAASGTIFAYYAMGWYRPAPEKERELVARITYSTDRTYYADSVKGRFTISRDNAKNTVYLQMNRLKPEDTAVYYCAVETWWGFKRYKFDYWGLGTQVTVSS
- polyreactivity (PSR sort gate): low polyreactivity

Sequence: QVQLVESGGGLLQAGGSLRLSCASSGSTFGGNAMGRYRQAPGKERELVAAITVGGDSTYYADSVKGRFTISRDNAKNTVYLQMNSLKPEDTAVYYCNASNVYFWFVTLEFDYWGQGTQVTVSS
- polyreactivity (PSR sort gate): low polyreactivity

Sequence: QVQLVESGGGLLQAGGSLRLSSAASGFIFNWYAMGGYRQAPGKERELVAAITSGGSTNYADSVKGRFTISRDNAKNTVYLQMNSLKPEDTAVYYCAARHWRRYGYCGQGTQVTVSS
- polyreactivity (PSR sort gate): high polyreactivity

Sequence: QVQLVESGGGLLQAGGSLRLSSAASGRTFSTNAMGWYRQAPGKERELVAAITSRGGSTYYADSVKGRFTISRDNAKNTVYLQMNSLKPEDTAVYYCAAGWLPKYGYWGQGTQVTVSS
- polyreactivity (PSR sort gate): low polyreactivity

Sequence: QVQLVESGGGLLQAGGSLRLSSAASGVYAMGWYRQAPGKERELVAAISRRGGSTYYADSVKGRFTISRDNAKNTVYLQMKSLNPADTAVYYCAADYTSRTRGNRDRLDYWGQGTQVTVSS
- polyreactivity (PSR sort gate): high polyreactivity

Sequence: QVQLVESGGGLLQAGRSLRLSCAASGSIIWLYAMGWYRQAPGKERELVAAISWTGTSTNYADSVKGRFTISRDYAKNTVYLQMNSLKPEDTAVYYCAKRWYNQKLFGYEDEYDYWGQGTQVTVSS
- polyreactivity (PSR sort gate): low polyreactivity

Sequence: QVQLVESGGGLVEAGGSHRLSCAASGSTFNYYAMGWYRQAPGKERELVASISGGGSTSYADSVKGRFTISRDHAKNTVYLQMNSLNPEHTAVYYCAATPIGQHFPLDYWGPGTQVTVSS
- polyreactivity (PSR sort gate): low polyreactivity

Sequence: QVQLVESGGGLVEAGGSLRISCAASGSIFGYYAMGWYRQAPGKERELVAAISYSGGSTNYADSVKGRFTISRDTAKNSVSLQMNSLKPEDTAGYAFATSRSRRYVEFYRYDYWGQGPQVTVSS
- polyreactivity (PSR sort gate): high polyreactivity

Sequence: QVQLVESGGGLVEAGGSLRLSCAASGLTIRWYAMGWYRQAPGKESEVVATISSGGSTNYADSVKGRFTISRDNAKNTVYFQMNSLTPEDTAVYYCNAYFRGYYHATIGMDYWGQGTQVTVSS
- polyreactivity (PSR sort gate): high polyreactivity

Sequence: QVQLVESGGGLVEAGGSLRLSCAASGSTFVIYTIGCYRQAPGTQRELVAAISSSGGITYYSDSVKGRFTISRDNAKNTVYLQMNSLKPEDTAVYYCAADSRSAYSPYYYWGQGTQVTVSS
- polyreactivity (PSR sort gate): high polyreactivity

Sequence: QVQLVESGGGLVEAGGSLRLSSAASGINFKMYAMVWSRQAPGKERELVADITYVGSTKYADSVKGRFTISRDNAKNTFYLQMNSLKPEDTAVYYFNAAQYYWYEYDYWGQGTQVTVSS
- polyreactivity (PSR sort gate): low polyreactivity

Sequence: QVQLVESGGGLVEAVGSLRLSCAASGINFQGNAMGWSRQAPGKERELVASITAGGDTTYYADSVKGRFTISRDNAKNTVYFQMNSLKPEDTAVYYCATRLYGYWPYGFDYWGQGTQVTVSS
- polyreactivity (PSR sort gate): low polyreactivity

Sequence: QVQLVESGGGLVHAGCRLRLSCAPSGSILYYNAMGGYRQAPGNERELVAAITSGGSTYADSVKGRFTISRDNAKNTVYLQMYSLKPEDTAVDYCAADLDWSLSVFGTTLEHDDWGQGTQVTVSS
- polyreactivity (PSR sort gate): low polyreactivity

Sequence: QVQLVESGGGLVHAGCSLRLSCAASGFTFGVYAMGWYRQAPGKERELVAAISTTVGSTYYADSVKGRFTISRDNAKNTFYLQMNSLKPEDTAVYYCAAEYTVYINYYIYEYWGQGTQVTVSS
- polyreactivity (PSR sort gate): low polyreactivity

Sequence: QVQLVESGGGLVHAGCSLRLSCAASVSTFQVYGLGWYRQAPGKEREMVAAISRSGVRTYYADSVKARFTMSRDNAKNTVYLQMNSLKPEDTAVYYCAKTYQSTTSKSGYYYWGQGTQVTVSS
- polyreactivity (PSR sort gate): high polyreactivity

Sequence: QVQLVESGGGLVHAGGSHRLSCAASGIIVYVNAMGLYRQAPGKERELVSAITFGGDSTYYADSVKGRFTISRDTAKNTVYLQMNSLKPEDTAVYFCATDGDPAYPELEYWGQGTQVTVSS
- polyreactivity (PSR sort gate): low polyreactivity

Sequence: QVQLVESGGGLVHAGGSLLLSCSASGRTFDSNAMGWSRQAPGKERELVAAISGSGDTTYYADSVKGRFTISRDNAKNTVYLQMNSLKPEDTAVYYCADDHDSSGSGYEYWGQGTEVTVSS
- polyreactivity (PSR sort gate): low polyreactivity

Sequence: QVQLVESGGGLVHAGGSLRISCAASGSTFPYYAMGWYRQAPVKERELVAAISRSGGSTYYADSVKGRFTISRDNAKNTVYLQMNRLKPEDTAVYYCNARLARWGSYEYNYWGQGTQVNVSS
- polyreactivity (PSR sort gate): low polyreactivity

Sequence: QVQLVESGGGLVHAGGSLRISCAPSGLTFLYNAMGWYRQAPGKERELVAAISQSAGSTYYADSVKGRFTISRDNAKNTVYLQMNSLKPEDTAVYYCAAEWDSPDLVIYDYWGQGTQVTVSS
- polyreactivity (PSR sort gate): low polyreactivity

Sequence: QVQLVESGGGLVHAGGSLRLICASSGFIFWAYAMGWYRQAPGKERELVAAISNNGVSTYYADSVKGRFTISRDIAKNTVYLQMNSLIPEDTAVYYCGATGVRSKRLASQWKLDYWGQGTQVTVST
- polyreactivity (PSR sort gate): high polyreactivity

Sequence: QVQLVESGGGLVHAGGSLRLSCAAAGSTFYYYAMGWYRQAPGKERELVARISDGDSTNYADSVKGRFTISRDNAKNTVYLQMNSLKPEDTAVYYCAAQHWYLGYGYWGQGTQVTVSS
- polyreactivity (PSR sort gate): low polyreactivity

Sequence: QVQLVESGGGLVHAGGSLRLSCAACGTTFINYAMGWYRQAPGKVRELVAVITSDDGSTYYADSVKGRFTISRDNAKNTVYLQMNSLKPEDTAVYYCAADYYDQRYRPGPWYDYWGQGTQVTVSS
- polyreactivity (PSR sort gate): low polyreactivity

Sequence: QVQLVESGGGLVHAGGSLRLSCAASGFIFPWYAMGWSRQAPGKERELVAIISWDTGSTYYADSVKGRFTISRDNAKNTVYLQINRLKPEDSAVYYCVAYVGSTYSAPEYYWGQGTQVTVSS
- polyreactivity (PSR sort gate): low polyreactivity

Sequence: QVQLVESGGGLVHAGGSLRLSCAASGFIYPGNAKGWYIQAPGKERELVAAISNSGSRTYYADSVKGRFTISRDHAMNTVYLQMNSLKPEDTAVYYCNADVDNRGWPYDYWGQGTQVNVSS
- polyreactivity (PSR sort gate): low polyreactivity

Sequence: QVQLVESGGGLVHAGGSLRLSCAASGFTCPYYPMGWYRQAPGKERELVDVISRSGGSTYYADSVKGRFTISRDNAKNTVYLQMNSLKPEDTAVYYCAKRYSLTGGKRTGYYWGQGTQVTVSS
- polyreactivity (PSR sort gate): high polyreactivity

Sequence: QVQLVESGGGLVHAGGSLRLSCAASGFTFGDNAMGSYRQAPGKERELVADIDSDGSTYYADSVKGRFTISRDNAKNTVYLQMNSLKPEDTAVYYCAKRQAFKQAPYEYWGQCTQVTVSS
- polyreactivity (PSR sort gate): low polyreactivity

Sequence: QVQLVESGGGLVHAGGSLRLSCAASGFTFIRYAMGWYRQAPGKERELVAAIRGTGTSTYYADSVKGRFTISRDNAKNTVYFQMNSLKPEDTAVYYCAAVHWWSSSLGMYYWGQGSQVTVSS
- polyreactivity (PSR sort gate): low polyreactivity

Sequence: QVQLVESGGGLVHAGGSLRLSCAASGFTFLRYVMGWYRQTPGKERELVAAISYSGGRTYYADSVKGRFTISRDNAKKTVYLQMNSLKPEDTAVYYCAAESFYPAGFRGYWGQGTQVTVSS
- polyreactivity (PSR sort gate): high polyreactivity

Sequence: QVQLVESGGGLVHAGGSLRLSCAASGFTFSYYAMVWYREAPGKEREFVAAISRSGGSTYYADSVKGRFTISRDNAKNTVYLQMNSLYPVDTAVYYCATELSYRHGYWGQGTQVSVSS
- polyreactivity (PSR sort gate): high polyreactivity

Sequence: QVQLVESGGGLVHAGGSLRLSCAASGFTFTFYAMGWYRQAPGKERELVATISSNGGSTYYADSVKGRFTISRDNAKNTVYLQMNSLKPEDTAVYYCAAITSYYGYYYWGQGTQVTVSS
- polyreactivity (PSR sort gate): high polyreactivity

Sequence: QVQLVESGGGLVHAGGSLRLSCAASGGIFPHNVMGWYRQAPGKEREMVAAITWSGGRTYYADSVKGRFTNSRDNAKNTVYFQLNSLKPEDTAVYYCAADPFYLTKSGGWGDYWGQGTQVTVSS
- polyreactivity (PSR sort gate): low polyreactivity

Sequence: QVQLVESGGGLVHAGGSLRLSCAASGGTFVYNAMGWYRQAPGKERELVAVISKRGGSTYYADSVKGRFTISRDNAKNTVYLEMISLKPEDTAVYYCAVSYRSFRYYWERYYSWGQGTQVTVSS
- polyreactivity (PSR sort gate): high polyreactivity

Sequence: QVQLVESGGGLVHAGGSLRLSCAASGGTLYRYAMGWYRQAPGKERELVAGISSSGGRTYYADSVKGRFTISRDNAKNTVYLQMNSLKPEDTAVYYCAKYWVSSYDYWGQGTQVTVSS
- polyreactivity (PSR sort gate): high polyreactivity

Sequence: QVQLVESGGGLVHAGGSLRLSCAASGIIFRSYAMGWYRQAPGKERELVAGISLSGGSTYYADSVKGLFTISRDNSKNTVYLQMKSLKPEDTAVYYCATRNHYFRALRYGYWGQGTQVTVSS
- polyreactivity (PSR sort gate): high polyreactivity
